Reference: patent US20170189513A1
Where no end group is shown, it is not given here.

B1: … (SEQ ID No 276) (peptide)
peptide: VYGFQWRHF
B2: … (SEQ ID No 221) (peptide)
peptide: RYSTGLAGNLL
B3: … (SEQ ID No 180) (peptide)
peptide: IYDDSFIRPVTF
B4: … (SEQ ID No 214) (peptide)
peptide: LYLKLWNLI
B5: … (SEQ ID No 162) (peptide)
peptide: VFTRVSSFL
B6: … (SEQ ID No 183) (peptide)
peptide: VFTSTARAF
B7: … (SEQ ID No 174) (peptide)
peptide: VYVGGGQIIHL
B8: … (SEQ ID No 190) (peptide)
peptide: GFFIFNERF
B9: … (SEQ ID No 173) (peptide)
peptide: IYSWILDHF
B10: … (SEQ ID No 192) (peptide)
peptide: SYALLTYMI
B11: … (SEQ ID No 159) (peptide)
peptide: LYNKGFIYL
B12: … (SEQ ID No 219) (peptide)
peptide: EYPLVINTL
B13: … (SEQ ID No 228) (peptide)
peptide: KYTSWYVAL
B14: RYFKGLVF (SEQ ID No 188) (peptide)
peptide: RYFKGLVF
B15: … (SEQ ID No 179) (peptide)
peptide: MYDSYWRQF
B16: … (SEQ ID No 166) (peptide)
peptide: YYVESGKLF
B17: … (SEQ ID No 158) (peptide)
peptide: HYSQELSLLYL
B18: … (SEQ ID No 271) (peptide)
peptide: LYHDIFSRL
B19: … (SEQ ID No 289) (peptide)
peptide: KYPVEWAKF
B20: … (SEQ ID No 168) (peptide)
peptide: KYQDILETI
B21: … (SEQ ID No 189) (peptide)
peptide: WYVNGVNYF
B22: … (SEQ ID No 197) (peptide)
peptide: EYSLFPGQVVI
B23: … (SEQ ID No 217) (peptide)
peptide: FFPPTRQMGLLF
B24: … (SEQ ID No 184) (peptide)
peptide: VFQNFPLLF
B25: … (SEQ ID No 164) (peptide)
peptide: KFSSFSLFF
B26: … (SEQ ID No 205) (peptide)
peptide: VHIPEVYLI
B27: … (SEQ ID No 208) (peptide)
peptide: TYTQDFNKF
B28: YFDKVVTL (SEQ ID No 215) (peptide)
peptide: YFDKVVTL
B29: … (SEQ ID No 286) (peptide)
peptide: RYPDNLKHL
B30: … (SEQ ID No 181) (peptide)
peptide: LYLDIINLF
B31: … (SEQ ID No 203) (peptide)
peptide: FYSRLLQKF
B32: … (SEQ ID No 206) (peptide)
peptide: EYQENFLSF
B33: … (SEQ ID No 267) (peptide)
peptide: KYMVYPQTF
B34: … (SEQ ID No 165) (peptide)
peptide: DYTTWTALL
B35: … (SEQ ID No 274) (peptide)
peptide: AYLHSHALI
B36: … (SEQ ID No 170) (peptide)
peptide: VYEDQVGKF
B37: … (SEQ ID No 171) (peptide)
peptide: LFIPSSKLLFL
B38: … (SEQ ID No 272) (peptide)
peptide: QYLQDAYSF
B39: … (SEQ ID No 223) (peptide)
peptide: KYIPYKYVI
B40: … (SEQ ID No 195) (peptide)
peptide: TYSVSFPMF
B41: … (SEQ ID No 284) (peptide)
peptide: RYLNKAFHI
B42: … (SEQ ID No 283) (peptide)
peptide: TYGDAGLTYTF
B43: … (SEQ ID No 227) (peptide)
peptide: IFLDYEAGTLSF
B44: … (SEQ ID No 176) (peptide)
peptide: EYNQWFTKL
B45: … (SEQ ID No 196) (peptide)
peptide: LYIDRPLPYL
B46: … (SEQ ID No 278) (peptide)
peptide: RYISDQLFTNF
B47: … (SEQ ID No 186) (peptide)
peptide: IFPQFLYQF
B48: … (SEQ ID No 160) (peptide)
peptide: VYTLDIPVL
B49: … (SEQ ID No 194) (peptide)
peptide: EFGSLHLEFL
B50: … (SEQ ID No 210) (peptide)
peptide: IYTMIYRNL
B51: … (SEQ ID No 225) (peptide)
peptide: YYVYIMNHL
B52: … (SEQ ID No 288) (peptide)
peptide: VYVSDIQEL
B53: … (SEQ ID No 187) (peptide)
peptide: TYLRDQHFL
B54: … (SEQ ID No 280) (peptide)
peptide: RYPDNLKHLYL
B55: … (SEQ ID No 175) (peptide)
peptide: YYEVHKELF
B56: … (SEQ ID No 191) (peptide)
peptide: VFKASKITF
B57: … (SEQ ID No 177) (peptide)
peptide: VYPWLGALL
B58: … (SEQ ID No 226) (peptide)
peptide: VYRDETGELF
B59: … (SEQ ID No 273) (peptide)
peptide: TYIKPISKL
B60: … (SEQ ID No 193) (peptide)
peptide: RFHPTPLLL
B61: … (SEQ ID No 172) (peptide)
peptide: TYTTVPRVAF
B62: … (SEQ ID No 182) (peptide)
peptide: IYQLDTASI
B63: … (SEQ ID No 198) (peptide)
peptide: LYLDKATLI
B64: … (SEQ ID No 163) (peptide)
peptide: DYLKGLASF
B65: … (SEQ ID No 282) (peptide)
peptide: KFVDSTFYL
B66: … (SEQ ID No 216) (peptide)
peptide: QYSSVFKSL
B67: … (SEQ ID No 211) (peptide)
peptide: YYLEVGKTLI
B68: … (SEQ ID No 161) (peptide)
peptide: IYLVSIPEL
B69: … (SEQ ID No 279) (peptide)
peptide: TYIESASEL
B70: … (SEQ ID No 167) (peptide)
peptide: NYINRILKL
B71: … (SEQ ID No 224) (peptide)
peptide: QYLENLEKL
B72: … (SEQ ID No 185) (peptide)
peptide: IYKVGAPTI
B73: … (SEQ ID No 178) (peptide)
peptide: IFIEVFSHF
B74: … (SEQ ID No 169) (peptide)
peptide: AYTLIAPNI
B75: … (SEQ ID No 275) (peptide)
peptide: EYINQGDLHEF

These binders were tested against HLA-A*24 (human) (assay: UV-ligand exchange, b2m ELISA).

First: B1
Second: B2
The peptide exchange yield of the first is higher: > 75% for the first, 50 to 75% for the second.

B3 and B4 fall in the same range of peptide exchange yield: 50 to 75% for the first, 50 to 75% for the second.

B5 and B6 fall in the same range of peptide exchange yield: 50 to 75% for the first, 50 to 75% for the second.

B7 and B8 fall in the same range of peptide exchange yield: 50 to 75% for the first, 50 to 75% for the second.

B9 and B10 cannot be ordered by peptide exchange yield: > 75% for the first, > 75% for the second.

Compared with B11, B12 is lower in peptide exchange yield: > 75% for the first, 50 to 75% for the second.

First: B13
Second: B14
The peptide exchange yield of the first is higher: > 75% for the first, 50 to 75% for the second.

B15 and B16 cannot be ordered by peptide exchange yield: > 75% for the first, > 75% for the second.

B17 and B18 cannot be ordered by peptide exchange yield: > 75% for the first, > 75% for the second.

B19 and B20 cannot be ordered by peptide exchange yield: > 75% for the first, > 75% for the second.

First: B21
Second: B22
The peptide exchange yield of the first is lower: 20 to 49% for the first, 50 to 75% for the second.

B23 and B24 cannot be ordered by peptide exchange yield: > 75% for the first, > 75% for the second.

B25 and B26 fall in the same range of peptide exchange yield: 50 to 75% for the first, 50 to 75% for the second.

Compared with B27, B28 is lower in peptide exchange yield: 50 to 75% for the first, 20 to 49% for the second.

First: B29
Second: B30
The peptide exchange yield of the first is lower: 20 to 49% for the first, > 75% for the second.

B31 and B32 fall in the same range of peptide exchange yield: 50 to 75% for the first, 50 to 75% for the second.

B33 and B34 cannot be ordered by peptide exchange yield: > 75% for the first, > 75% for the second.

Compared with B35, B36 is lower in peptide exchange yield: > 75% for the first, 20 to 49% for the second.

First: B37
Second: B38
The peptide exchange yield of the first is lower: 50 to 75% for the first, > 75% for the second.

First: B39
Second: B40
The peptide exchange yield of the first is lower: 50 to 75% for the first, > 75% for the second.

B41 and B42 fall in the same range of peptide exchange yield: 50 to 75% for the first, 50 to 75% for the second.

Compared with B43, B44 is lower in peptide exchange yield: > 75% for the first, 50 to 75% for the second.

First: B45
Second: B46
The peptide exchange yield of the first is lower: 50 to 75% for the first, > 75% for the second.

B47 and B48 cannot be ordered by peptide exchange yield: > 75% for the first, > 75% for the second.

Compared with B49, B50 is higher in peptide exchange yield: < 20% for the first, > 75% for the second.

B51 and B52 fall in the same range of peptide exchange yield: 50 to 75% for the first, 50 to 75% for the second.

B53 and B54 cannot be ordered by peptide exchange yield: > 75% for the first, > 75% for the second.

First: B55
Second: B56
The peptide exchange yield of the first is higher: > 75% for the first, 50 to 75% for the second.

Compared with B57, B58 is lower in peptide exchange yield: > 75% for the first, 50 to 75% for the second.

First: B59
Second: B60
The peptide exchange yield of the first is lower: 50 to 75% for the first, > 75% for the second.

Compared with B61, B62 is lower in peptide exchange yield: > 75% for the first, 50 to 75% for the second.

First: B63
Second: B64
The peptide exchange yield of the first is lower: 50 to 75% for the first, > 75% for the second.

B65 and B66 cannot be ordered by peptide exchange yield: > 75% for the first, > 75% for the second.

B67 and B68 cannot be ordered by peptide exchange yield: > 75% for the first, > 75% for the second.

First: B69
Second: B70
The peptide exchange yield of the first is lower: 50 to 75% for the first, > 75% for the second.

B71 and B72 fall in the same range of peptide exchange yield: 50 to 75% for the first, 50 to 75% for the second.

B73 and B74 fall in the same range of peptide exchange yield: 50 to 75% for the first, 50 to 75% for the second.

Work on B75 yielded a peptide exchange yield of 50 to 75%.
